Residue numbers refer to the chain shown, from its start. Numbers in names are those of the source.

This data set addresses T1, PUF4 RNA-binding domain (Saccharomyces cerevisiae, UniProt P25339 537-888).
T1 sequence: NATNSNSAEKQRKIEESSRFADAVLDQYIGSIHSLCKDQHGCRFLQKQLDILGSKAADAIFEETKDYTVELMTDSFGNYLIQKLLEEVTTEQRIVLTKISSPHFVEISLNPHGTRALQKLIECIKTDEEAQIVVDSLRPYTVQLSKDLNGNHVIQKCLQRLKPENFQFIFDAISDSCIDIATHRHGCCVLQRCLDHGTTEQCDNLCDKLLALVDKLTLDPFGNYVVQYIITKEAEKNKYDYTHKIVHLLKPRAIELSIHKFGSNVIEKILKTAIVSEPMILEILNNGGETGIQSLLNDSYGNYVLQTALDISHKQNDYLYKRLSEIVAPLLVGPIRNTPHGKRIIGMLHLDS
The data set can be described thus: Mg; RNA-MaP; 20 mM Na-HEPES pH 7.4, 30 mM KOAc, 0.75 mM MgCl2, 0.1% Tween-20, 5% glycerol, 0.1 mg/mL BSA, 2 mM DTT; 25 C; 0.0125-409.6 nM protein. To be noted: tags: N-His6-TEV cleaved; C-SNAP kept, Cy3B-labelled; label: tethered on chip by stalled RNA polymerase.

UCUCUUUGUAUUCCCUAUUAUCUCUU (ssRNA) [Ie_S1_P5E.1_K5.1_C5.1_H5.1_A5.1_[+6CCCT]_F5.1_T5.1]: the equilibrium dissociation constant (Kd) – broadly, the equilibrium constant for the complex coming apart – was found to be 32.4 nM.
UCUCUUUGUAUUUUCCAUUAUCUCUU (ssRNA) [Ie_S1_P5E.1_K5.1_C5.1_H5.1_A5.1_[+6TTCC]_F5.1_T5.1] came in with a Kd of 51.8 nM.
On to UCUCUUUGUAUUAUUUAUCUCUU (ssRNA) [Ie_S1_P5E.1_K5.1_C5.1_H5.1_A5.1_F5.1_[+8T]_T5.1], for which the Kd came to 8.84 nM.
With UCUCUUUGUAUUAUCUUAUCUCUU (ssRNA) [Ie_S1_P5E.1_K5.1_C5.1_H5.1_A5.1_[+7TC]_F5.1_T5.1], the affinity, expressed as Kd, was 15.7 nM.
UCUCUUUGUCCCUUAUUAUUAUCUCUU (ssRNA) [Ie_S1_P5E.1_K5.1_C5.1_H5.1_[+3CCCTT]_A5.1_F5.1_T5.1] yielded a Kd of 884 nM.
Turning to UCUCUUUGUUUCAUUAUUAUCUCUU (ssRNA) [Ie_S1_P5E.1_K5.1_C5.1_H5.1_[+3TTC]_A5.1_F5.1_T5.1], the Kd was determined as 22.2 nM.
UCUCUUUGUACCUUUAUUAUCUCUU (ssRNA) [Ie_S1_P5E.1_K5.1_C5.1_H5.1_[+4CCT]_A5.1_F5.1_T5.1] came in with a Kd of 6.7 nM.
For UCUCUUUGUAUUCUUAUUAUCUCUU (ssRNA) [Ie_S1_P5E.1_K5.1_C5.1_H5.1_A5.1_[+5TCT]_F5.1_T5.1], the Kd amounted to 7.13 nM.
For the molecule UCUCUUUGUAUUUUUAUUAUCUCUU (ssRNA) [Ie_S1_P5E.1_K5.1_C5.1_H5.1_A5.1_[+6TTT]_F5.1_T5.1], the equilibrium dissociation constant (Kd) turned out to be 4.32 nM.
The molecule UCUCUUUGUAUUAUUUUAUCUCUU (ssRNA) [Ie_S1_P5E.1_K5.1_C5.1_H5.1_A5.1_[+7TT]_F5.1_T5.1] registered a Kd of 15.6 nM.
UCUCUUUGUCCCAUUAUUAUCUCUU (ssRNA) [Ie_S1_P5E.1_K5.1_C5.1_H5.1_[+3CCC]_A5.1_F5.1_T5.1] showed a dissociation constant (Kd) of 66.2 nM.
Take UCUCUUUGUAUUCCUUUAUUAUCUCUU (ssRNA) [Ie_S1_P5E.1_K5.1_C5.1_H5.1_[+4TTCCT]_A5.1_F5.1_T5.1]: the Kd worked out at 48.5 nM.
Regarding UCUCUUUGUAUUACCCUUAUCUCUU (ssRNA) [Ie_S1_P5E.1_K5.1_C5.1_H5.1_A5.1_[+7CCC]_F5.1_T5.1], binding was characterised by a dissociation constant (Kd) of 209 nM.
The figure for UCUCUUUGUAUCCCUUUAUUAUCUCUU (ssRNA) [Ie_S1_P5E.1_K5.1_C5.1_H5.1_A5.1_[+5CCCTT]_F5.1_T5.1] is 60.4 nM; for UCUCUUUGUCUCAUUAUUAUCUCUU (ssRNA) [Ie_S1_P5E.1_K5.1_C5.1_H5.1_[+3CTC]_A5.1_F5.1_T5.1] it is 36.6 nM.
In the case of UCUCUUUGUAUUCCUCUAUUAUCUCUU (ssRNA) [Ie_S1_P5E.1_K5.1_C5.1_H5.1_A5.1_[+6CCTCT]_F5.1_T5.1], the equilibrium dissociation constant (Kd) was determined as 66.2 nM.
Regarding UCUCUUUGUAUUAUUUUUAUCUCUU (ssRNA) [Ie_S1_P5E.1_K5.1_C5.1_H5.1_A5.1_F5.1_[+8TTT]_T5.1], the equilibrium dissociation constant (Kd) was determined as 13.4 nM.
Consider UCUCUUUGUAUUUUCCUAUUAUCUCUU (ssRNA) [Ie_S1_P5E.1_K5.1_C5.1_H5.1_A5.1_[+6TTCCT]_F5.1_T5.1], for which the equilibrium dissociation constant (Kd) is 26.7 nM.
For the molecule UCUCUUUGUUCCAUUAUUAUCUCUU (ssRNA) [Ie_S1_P5E.1_K5.1_C5.1_H5.1_[+3TCC]_A5.1_F5.1_T5.1], binding was put at a Kd of 36.5 nM.

B1: Ib_S2_P3E.1_K3.1_C3.1_H3.1_[T1G]_A3.1_F3.1_[A8T]_T3.1 (ssRNA)
RNA: UUUGAUUAAUAUGAUAUCGUUCUUUCUGGUAUAUUUUCUUUCUCGAUAUCAUAUUAAUCUUU
Take B1: the dissociation constant Kd was 955 nM.

B2: Ib_S2_P3E.1_K3.1_C3.1_H3.1_[G2T]_A3.1_F3.1_[A8C]_T3.1 (ssRNA)
RNA: B1 RNA with G28U, G29U, U35C
Take B2: the Kd is more than 2300 nM.

B3: Ib_S2_P3E.1_K3.1_C3.1_H3.1_[G2C]_A3.1_F3.1_[A8T]_T3.1 (ssRNA)
RNA: B1 RNA with G28U, G29C
B3: the Kd was 1310 nM.

B4: Ib_S2_P3E.1_K3.1_C3.1_H3.1_[T3C]_A3.1_F3.1_[A8C]_T3.1 (ssRNA)
RNA: B1 RNA with G28U, U30C, U35C
B4 returned a Kd of more than 2300 nM.

B5: Ib_S2_P3E.1_K3.1_C3.1_H3.1_[G2C]_A3.1_F3.1_[A8C]_T3.1 (ssRNA)
RNA: B1 RNA with G28U, G29C, U35C
Turning to B5, the dissociation constant Kd was more than 2300 nM.
As to UCUCUUUGUAUUUCCUUAUUAUCUCUU (ssRNA) [Ie_S1_P5E.1_K5.1_C5.1_H5.1_A5.1_[+5TTCCT]_F5.1_T5.1], the Kd stood at 30.1 nM.
Turning to UCUCUUUGUUCUCAUUAUUAUCUCUU (ssRNA) [Ie_S1_P5E.1_K5.1_C5.1_H5.1_[+3TCTC]_A5.1_F5.1_T5.1], the Kd is 456 nM.
In turn, UCUCUUUGUACCUCUUUAUUAUCUCUU (ssRNA) [Ie_S1_P5E.1_K5.1_C5.1_H5.1_[+4CCTCT]_A5.1_F5.1_T5.1] registered a Kd of 35.4 nM.
UCUCUUUGUAUUUUCAUUAUCUCUU (ssRNA) [Ie_S1_P5E.1_K5.1_C5.1_H5.1_A5.1_[+6TTC]_F5.1_T5.1] yielded a dissociation constant (Kd) of 40.7 nM.
The molecule UCUCUUUGUAUCCUUAUUAUCUCUU (ssRNA) [Ie_S1_P5E.1_K5.1_C5.1_H5.1_[+4TCC]_A5.1_F5.1_T5.1] had a Kd of 11 nM.
As for UCUCUUUGUCUCUCAUUAUUAUCUCUU (ssRNA) [Ie_S1_P5E.1_K5.1_C5.1_H5.1_[+3CTCTC]_A5.1_F5.1_T5.1], the equilibrium dissociation constant (Kd) stood at 1410 nM.
Molecule UCUCUUUGUUUCCAUUAUUAUCUCUU (ssRNA) [Ie_S1_P5E.1_K5.1_C5.1_H5.1_[+3TTCC]_A5.1_F5.1_T5.1] came in with a Kd of 126 nM.
Consider UCUCUUUGUAUUACCUUAUCUCUU (ssRNA) [Ie_S1_P5E.1_K5.1_C5.1_H5.1_A5.1_[+7CC]_F5.1_T5.1], for which the dissociation constant (Kd) was determined as 76.7 nM.
Regarding UCUCUUUGUACCCUUUUAUUAUCUCUU (ssRNA) [Ie_S1_P5E.1_K5.1_C5.1_H5.1_[+4CCCTT]_A5.1_F5.1_T5.1], binding was put at a Kd of 42.3 nM.
Take UCUCUUUGUAUUUCUCUAUUAUCUCUU (ssRNA) [Ie_S1_P5E.1_K5.1_C5.1_H5.1_A5.1_[+6TCTCT]_F5.1_T5.1]: the dissociation constant (Kd) was 30.9 nM.
Turning to UCUCUUUGUAUUACUUUAUCUCUU (ssRNA) [Ie_S1_P5E.1_K5.1_C5.1_H5.1_A5.1_[+7CT]_F5.1_T5.1], binding was characterised by a dissociation constant (Kd) of 37.3 nM.
The molecule UCUCUUUGUAUCCUCUUAUUAUCUCUU (ssRNA) [Ie_S1_P5E.1_K5.1_C5.1_H5.1_A5.1_[+5CCTCT]_F5.1_T5.1] displayed a Kd of 30.3 nM.
UCUCUUUGUAUUCCCAUUAUCUCUU (ssRNA) [Ie_S1_P5E.1_K5.1_C5.1_H5.1_A5.1_[+6CCC]_F5.1_T5.1] showed an equilibrium dissociation constant (Kd) of 350 nM.
For UCUCUUUGUAUUCUCUUAUUAUCUCUU (ssRNA) [Ie_S1_P5E.1_K5.1_C5.1_H5.1_A5.1_[+5TCTCT]_F5.1_T5.1], the equilibrium dissociation constant (Kd) was determined as 29.4 nM.
Then UCUCUUUGUAUUAUUCUUAUCUCUU (ssRNA) [Ie_S1_P5E.1_K5.1_C5.1_H5.1_A5.1_F5.1_[+8TCT]_T5.1], with 16.7 nM; and UCUCUUUGUAUUCCUCAUUAUCUCUU (ssRNA) [Ie_S1_P5E.1_K5.1_C5.1_H5.1_A5.1_[+6CCTC]_F5.1_T5.1], with 120 nM.
For the molecule UCUCUUUGUCCUCAUUAUUAUCUCUU (ssRNA) [Ie_S1_P5E.1_K5.1_C5.1_H5.1_[+3CCTC]_A5.1_F5.1_T5.1], the affinity, expressed as Kd, was 738 nM.
Then UCUCUUUGUAUCUCUCUAUUAUCUCUU (ssRNA) [Ie_S1_P5E.1_K5.1_C5.1_H5.1_A5.1_[+5CTCTC]_F5.1_T5.1], with 36 nM; and UCUCUUUGUAUUAUCCUUAUCUCUU (ssRNA) [Ie_S1_P5E.1_K5.1_C5.1_H5.1_A5.1_F5.1_[+8CCT]_T5.1], with 20.7 nM.
Then UCUCUUUGUUCUCUAUUAUUAUCUCUU (ssRNA) [Ie_S1_P5E.1_K5.1_C5.1_H5.1_[+3TCTCT]_A5.1_F5.1_T5.1], with 85.1 nM.
UCUCUUUGUACUCUUUAUUAUCUCUU (ssRNA) [Ie_S1_P5E.1_K5.1_C5.1_H5.1_[+4CTCT]_A5.1_F5.1_T5.1] showed a Kd of 13.1 nM.
UCUCUUUGUCCCUAUUAUUAUCUCUU (ssRNA) [Ie_S1_P5E.1_K5.1_C5.1_H5.1_[+3CCCT]_A5.1_F5.1_T5.1] returned a Kd of 1100 nM.
UCUCUUUGUAUUACUCUUUAUCUCUU (ssRNA) [Ie_S1_P5E.1_K5.1_C5.1_H5.1_A5.1_[+7CTCT]_F5.1_T5.1] showed a Kd of 98.9 nM.
Regarding UCUCUUUGUAUUCUCUCAUUAUCUCUU (ssRNA) [Ie_S1_P5E.1_K5.1_C5.1_H5.1_A5.1_[+6CTCTC]_F5.1_T5.1], the dissociation constant Kd was found to be 84.4 nM.
UCUCUUUGUCCUCUAUUAUUAUCUCUU (ssRNA) [Ie_S1_P5E.1_K5.1_C5.1_H5.1_[+3CCTCT]_A5.1_F5.1_T5.1]: the equilibrium dissociation constant (Kd) was 397 nM.
Take UCUCUUUGUACUUUUAUUAUCUCUU (ssRNA) [Ie_S1_P5E.1_K5.1_C5.1_H5.1_[+4CTT]_A5.1_F5.1_T5.1]: the affinity, expressed as Kd, was 4.31 nM.
As to UCUCUUUGUAUUACCUCUUAUCUCUU (ssRNA) [Ie_S1_P5E.1_K5.1_C5.1_H5.1_A5.1_[+7CCTC]_F5.1_T5.1], the Kd came out at 428 nM.
Regarding UCUCUUUGUAUUAUCUCUUAUCUCUU (ssRNA) [Ie_S1_P5E.1_K5.1_C5.1_H5.1_A5.1_[+7TCTC]_F5.1_T5.1], the affinity, expressed as Kd, was 22.2 nM.
Turning to UCUCUUUGUAUUUCUAUUAUCUCUU (ssRNA) [Ie_S1_P5E.1_K5.1_C5.1_H5.1_A5.1_[+5TTC]_F5.1_T5.1], the Kd amounted to 6.57 nM.
Turning to UCUCUUUGUAUUAUCUUUAUCUCUU (ssRNA) [Ie_S1_P5E.1_K5.1_C5.1_H5.1_A5.1_F5.1_[+8CTT]_T5.1], the dissociation constant (Kd) amounted to 19.2 nM.
UCUCUUUGUUUCCUAUUAUUAUCUCUU (ssRNA) [Ie_S1_P5E.1_K5.1_C5.1_H5.1_[+3TTCCT]_A5.1_F5.1_T5.1]: binding was characterised by a dissociation constant (Kd) of 139 nM.

Source of the values: PMC9352680, “A comprehensive thermodynamic model for RNA binding by the Saccharomyces cerevisiae Pumilio protein PUF4”.
